Results: paper PMC7054990

Molecular target: ALIX BRO1 domain (human)
Test: recruitment to supported lipid bilayers (time-lapse confocal fluorescence microscopy); supported bilayers DOPC:DOPE:PI:LBPA (4.99:2:1:2 mol) preincubated 40 min with 3.7 µM ALIX BRO1 domain or mutant, unbound protein removed, then 0.64 µM CHMP4B-488 for 25 min; ALIX buffer: 25 mM Hepes pH 7.4, 0.3 mM BAPTA, 0.3 mM NTA, 0.3 mM hydroxyethyl EDTA, 686 µM CaCl2 (20 µM free calcium)

ALIX BRO1 domain (human), sequence (Q9WU78 1-359): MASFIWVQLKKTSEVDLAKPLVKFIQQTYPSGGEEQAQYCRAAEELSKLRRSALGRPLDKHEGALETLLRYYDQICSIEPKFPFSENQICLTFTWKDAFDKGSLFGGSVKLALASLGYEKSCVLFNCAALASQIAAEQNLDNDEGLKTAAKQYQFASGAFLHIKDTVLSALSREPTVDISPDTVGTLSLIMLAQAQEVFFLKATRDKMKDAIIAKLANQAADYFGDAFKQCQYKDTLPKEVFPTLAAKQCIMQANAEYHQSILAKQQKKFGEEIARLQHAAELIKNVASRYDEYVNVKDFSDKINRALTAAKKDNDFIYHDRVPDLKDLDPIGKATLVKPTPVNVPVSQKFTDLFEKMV

B1: Alexa Fluor 488 CHMP4B (natural protein)
chain: MSVFGKLFGAGGGKAGKGGPTPQEAIQRLRDTEEMLSKKQEFLEKKIEQELTAAKKHGTKNKRAALQALKRKKRYEKQLAQIDGTLSTIEFQREALENANTNTEVLKNMGYAAKAMKAAHDNMDIDKVDELMQDIADQQELAEEISTAISKPVGFGEEFDEDELMAELEELEQEELDKNLLEISGPETVPLPNVPSIALPSKPAKKKEEEDDDMKELENWAGSM
modifications: Alexa Fluor 488 (labelled with Alexa Fluor 488 tetrafluorophenyl ester, 1:2 protein:dye)
- apparent t1/2 of recruitment: 5 min
